# Patent US20200079833A1 (AstraZeneca / MedImmune, published 2020)
# Starred links: 1 amine or outer side, 2 acyl side, 3 side chain; linkers in the order of their positions; H or OH if unused. Non-standard residues stand in square brackets, D forms with d. Groups on a side chain read outwards from the residue. Primed or numbered codes have the meaning given here. No end group written: not given here. *: point of attachment. Dodecylbenzoate = dodecylbenzoyl lipid group; γGlu = O=C(O)[C@H](CCC(=O)[*:2])N[*:1]; αMeF = C[C@](N)(Cc1ccccc1)C(=O)O; αMeK = C[C@](N)(CCCCN)C(=O)O; Lauroyl = CCCCCCCCCCCC(=O)*; αMeS = C[C@](N)(CO)C(=O)O; PEG2′ = not defined here; Aib = CC(C)(N)C(=O)O; Ahx = NCCCCCC(=O)O
# T1: glucose-dependent insulinotropic peptide (gastric inhibitory polypeptide) receptor (GIPR) (human, UniProt P48546 22-466)
# T1 sequence (looked up): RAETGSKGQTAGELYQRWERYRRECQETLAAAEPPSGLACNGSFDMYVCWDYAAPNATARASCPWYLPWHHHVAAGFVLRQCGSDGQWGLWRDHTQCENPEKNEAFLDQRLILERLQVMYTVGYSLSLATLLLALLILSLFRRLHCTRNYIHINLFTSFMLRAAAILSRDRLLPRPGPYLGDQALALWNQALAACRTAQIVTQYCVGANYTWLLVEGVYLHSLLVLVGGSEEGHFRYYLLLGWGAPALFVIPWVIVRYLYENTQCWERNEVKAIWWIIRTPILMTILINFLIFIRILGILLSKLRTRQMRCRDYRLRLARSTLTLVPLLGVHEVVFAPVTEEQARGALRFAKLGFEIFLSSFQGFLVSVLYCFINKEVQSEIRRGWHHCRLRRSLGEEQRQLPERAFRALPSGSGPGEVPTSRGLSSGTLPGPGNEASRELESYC
# B1: SEQ ID NO 168 (peptide)
# peptide: H[Aib]EGS[αMeF]TSDV[αMeS]S[αMeF]LEGEAA[αMeK]E[αMeF]IA[αMeF]VVK([Ahx-Ahx-Lauroyl])GG-NH2
# modifications: N-terminus assumed
# SMILES: CCCCCCCCCCCC(=O)NCCCCCC(=O)NCCCCCC(=O)NCCCC[C@H](NC(=O)[C@@H](NC(=O)[C@@H](NC(=O)[C@](C)(Cc1ccccc1)NC(=O)[C@H](C)NC(=O)[C@@H](NC(=O)[C@](C)(Cc1ccccc1)NC(=O)[C@H](CCC(=O)O)NC(=O)[C@](C)(CCCCN)NC(=O)[C@H](C)NC(=O)[C@H](C)NC(=O)[C@H](CCC(=O)O)NC(=O)CNC(=O)[C@H](CCC(=O)O)NC(=O)[C@H](CC(C)C)NC(=O)[C@](C)(Cc1ccccc1)NC(=O)[C@H](CO)NC(=O)[C@](C)(CO)NC(=O)[C@@H](NC(=O)[C@H](CC(=O)O)NC(=O)[C@H](CO)NC(=O)[C@@H](NC(=O)[C@](C)(Cc1ccccc1)NC(=O)[C@H](CO)NC(=O)CNC(=O)[C@H](CCC(=O)O)NC(=O)C(C)(C)NC(=O)[C@@H](N)Cc1c[nH]cn1)[C@@H](C)O)C(C)C)[C@@H](C)CC)C(C)C)C(C)C)C(=O)NCC(=O)NCC(N)=O
# B2: SEQ ID NO 169 (peptide)
# peptide: H[Aib]EGS[αMeF]TSDV[αMeS]S[αMeF]LEGEAA[αMeK]E[αMeF]IA[αMeF]VVK([Ahx-Ahx-Ahx-Lauroyl])GG-NH2
# modifications: N-terminus assumed
# SMILES: CCCCCCCCCCCC(=O)NCCCCCC(=O)NCCCCCC(=O)NCCCCCC(=O)NCCCC[C@H](NC(=O)[C@@H](NC(=O)[C@@H](NC(=O)[C@](C)(Cc1ccccc1)NC(=O)[C@H](C)NC(=O)[C@@H](NC(=O)[C@](C)(Cc1ccccc1)NC(=O)[C@H](CCC(=O)O)NC(=O)[C@](C)(CCCCN)NC(=O)[C@H](C)NC(=O)[C@H](C)NC(=O)[C@H](CCC(=O)O)NC(=O)CNC(=O)[C@H](CCC(=O)O)NC(=O)[C@H](CC(C)C)NC(=O)[C@](C)(Cc1ccccc1)NC(=O)[C@H](CO)NC(=O)[C@](C)(CO)NC(=O)[C@@H](NC(=O)[C@H](CC(=O)O)NC(=O)[C@H](CO)NC(=O)[C@@H](NC(=O)[C@](C)(Cc1ccccc1)NC(=O)[C@H](CO)NC(=O)CNC(=O)[C@H](CCC(=O)O)NC(=O)C(C)(C)NC(=O)[C@@H](N)Cc1c[nH]cn1)[C@@H](C)O)C(C)C)[C@@H](C)CC)C(C)C)C(C)C)C(=O)NCC(=O)NCC(N)=O
# Molecular target: GLP-1 receptor (GLP-1R) (human, UniProt P43220 24-463)
# Assay: cell-based or functional assay
Binder,"Primary assay EC50 (cAMP), GLP-1R n1","Primary assay EC50 (cAMP), GLP-1R n2","Primary assay EC50 (cAMP), Mean pM GLP-1R"
H[Aib]EGS[αMeF]TSDV[αMeS]S[αMeF]LEGEAA[αMeK]E[αMeF]IA[αMeF]VVK([γGlu-γGlu-Dodecylbenzoate])GG-NH2 [SEQ ID NO 174],0.022 nM,0.011 nM,16.3 pM
H[Aib]EGS[αMeF]TSDV[αMeS]S[αMeF]LEGEAA[αMeK]E[αMeF]IA[αMeF]VVK([Ahx-Ahx-Ahx-Dodecylbenzoate])GG-NH2 [SEQ ID NO 178],0.005 nM,0.0023 nM,3.6 pM
B1,0.0051 nM,0.0026 nM,3.8 pM
H[Aib]EGS[αMeF]TSDV[αMeS]S[αMeF]LEGEAA[αMeK]E[αMeF]IA[αMeF]VVK([PEG2′-PEG2′-Lauroyl])GG-NH2 [SEQ ID NO 171],0.0025 nM,0.0012 nM,1.9 pM
H[Aib]EGS[αMeF]TSDV[αMeS]S[αMeF]LEGEAA[αMeK]E[αMeF]IA[αMeF]VVK([PEG2′-PEG2′-PEG2′-Lauroyl])GG-NH2 [SEQ ID NO 172],0.0015 nM,0.00072 nM,1.1 pM
H[Aib]EGS[αMeF]TSDV[αMeS]S[αMeF]LEGEAA[αMeK]E[αMeF]IA[αMeF]VVK([PEG2′-Lauroyl])GG-NH2 [SEQ ID NO 170],0.008 nM,0.0045 nM,6.2 pM
B2,0.0034 nM,0.0017 nM,2.6 pM
H[Aib]EGS[αMeF]TSDV[αMeS]S[αMeF]LEGEAA[αMeK]E[αMeF]IA[αMeF]VVK([Ahx-Ahx-Dodecylbenzoate])GG-NH2 [SEQ ID NO 177],0.0064 nM,0.003 nM,4.7 pM
H[Aib]EGS[αMeF]TSDV[αMeS]S[αMeF]LEGEAA[αMeK]E[αMeF]IA[αMeF]VVK([γGlu-γGlu-γGlu-Dodecylbenzoate])GG-NH2 [SEQ ID NO 175],0.023 nM,0.012 nM,17.4 pM
H[Aib]EGS[αMeF]TSDV[αMeS]S[αMeF]LEGEAA[αMeK]E[αMeF]IA[αMeF]VVK([PEG2′-Dodecylbenzoate])GG-NH2 [SEQ ID NO 179],0.011 nM,0.0044 nM,7.9 pM
H[Aib]EGS[αMeF]TSDV[αMeS]S[αMeF]LEGEAA[αMeK]E[αMeF]IA[αMeF]VVK([γGlu-Dodecylbenzoate])GG-NH2 [SEQ ID NO 173],0.021 nM,0.0092 nM,15.1 pM
H[Aib]EGS[αMeF]TSDV[αMeS]S[αMeF]LEGEAA[αMeK]E[αMeF]IA[αMeF]VVK([Ahx-Dodecylbenzoate])GG-NH2 [SEQ ID NO 176],0.023 nM,0.0096 nM,16 pM

# Molecular target: glucagon receptor (GCGR) (human, UniProt P47871 26-477)
# Sequence (P47871 26-477): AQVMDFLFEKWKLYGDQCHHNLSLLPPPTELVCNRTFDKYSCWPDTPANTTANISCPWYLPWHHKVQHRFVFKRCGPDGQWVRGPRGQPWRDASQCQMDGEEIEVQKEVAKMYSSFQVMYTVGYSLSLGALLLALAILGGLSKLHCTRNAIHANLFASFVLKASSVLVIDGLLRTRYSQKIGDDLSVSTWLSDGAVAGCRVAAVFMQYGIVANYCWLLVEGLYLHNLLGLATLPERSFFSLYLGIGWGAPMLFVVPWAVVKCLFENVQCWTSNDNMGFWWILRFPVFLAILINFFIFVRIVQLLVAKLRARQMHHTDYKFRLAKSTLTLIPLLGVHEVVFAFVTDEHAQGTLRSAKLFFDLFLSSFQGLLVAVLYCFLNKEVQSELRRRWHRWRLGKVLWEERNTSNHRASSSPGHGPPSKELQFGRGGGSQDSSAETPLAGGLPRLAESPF
# Assay: cell-based or functional assay
Binder,"Primary assay EC50 (cAMP), Gluc-R, first run","Primary assay EC50 (cAMP), Gluc-R, second run"
H[Aib]EGS[αMeF]TSDV[αMeS]S[αMeF]LEGEAA[αMeK]E[αMeF]IA[αMeF]VVK([γGlu-γGlu-Dodecylbenzoate])GG-NH2 [SEQ ID NO 174],26 nM,26 nM
H[Aib]EGS[αMeF]TSDV[αMeS]S[αMeF]LEGEAA[αMeK]E[αMeF]IA[αMeF]VVK([Ahx-Ahx-Ahx-Dodecylbenzoate])GG-NH2 [SEQ ID NO 178],26 nM,26 nM
B1,28 nM,28 nM
H[Aib]EGS[αMeF]TSDV[αMeS]S[αMeF]LEGEAA[αMeK]E[αMeF]IA[αMeF]VVK([PEG2′-PEG2′-Lauroyl])GG-NH2 [SEQ ID NO 171],27 nM,27 nM
H[Aib]EGS[αMeF]TSDV[αMeS]S[αMeF]LEGEAA[αMeK]E[αMeF]IA[αMeF]VVK([PEG2′-PEG2′-PEG2′-Lauroyl])GG-NH2 [SEQ ID NO 172],26 nM,26 nM
H[Aib]EGS[αMeF]TSDV[αMeS]S[αMeF]LEGEAA[αMeK]E[αMeF]IA[αMeF]VVK([PEG2′-Lauroyl])GG-NH2 [SEQ ID NO 170],28 nM,28 nM
B2,27 nM,27 nM
H[Aib]EGS[αMeF]TSDV[αMeS]S[αMeF]LEGEAA[αMeK]E[αMeF]IA[αMeF]VVK([Ahx-Ahx-Dodecylbenzoate])GG-NH2 [SEQ ID NO 177],27 nM,27 nM
H[Aib]EGS[αMeF]TSDV[αMeS]S[αMeF]LEGEAA[αMeK]E[αMeF]IA[αMeF]VVK([γGlu-γGlu-γGlu-Dodecylbenzoate])GG-NH2 [SEQ ID NO 175],26 nM,26 nM
H[Aib]EGS[αMeF]TSDV[αMeS]S[αMeF]LEGEAA[αMeK]E[αMeF]IA[αMeF]VVK([PEG2′-Dodecylbenzoate])GG-NH2 [SEQ ID NO 179],27 nM,27 nM
H[Aib]EGS[αMeF]TSDV[αMeS]S[αMeF]LEGEAA[αMeK]E[αMeF]IA[αMeF]VVK([γGlu-Dodecylbenzoate])GG-NH2 [SEQ ID NO 173],27 nM,27 nM
H[Aib]EGS[αMeF]TSDV[αMeS]S[αMeF]LEGEAA[αMeK]E[αMeF]IA[αMeF]VVK([Ahx-Dodecylbenzoate])GG-NH2 [SEQ ID NO 176],27 nM,27 nM

# Molecular target: T1, glucose-dependent insulinotropic …
# Assay: cell-based or functional assay
Binder,"Primary assay EC50 (cAMP), GIP-R, first run","Primary assay EC50 (cAMP), GIP-R, second run"
H[Aib]EGS[αMeF]TSDV[αMeS]S[αMeF]LEGEAA[αMeK]E[αMeF]IA[αMeF]VVK([γGlu-γGlu-Dodecylbenzoate])GG-NH2 [SEQ ID NO 174],26 nM,26 nM
H[Aib]EGS[αMeF]TSDV[αMeS]S[αMeF]LEGEAA[αMeK]E[αMeF]IA[αMeF]VVK([Ahx-Ahx-Ahx-Dodecylbenzoate])GG-NH2 [SEQ ID NO 178],26 nM,26 nM
B1,28 nM,28 nM
H[Aib]EGS[αMeF]TSDV[αMeS]S[αMeF]LEGEAA[αMeK]E[αMeF]IA[αMeF]VVK([PEG2′-PEG2′-Lauroyl])GG-NH2 [SEQ ID NO 171],27 nM,27 nM
H[Aib]EGS[αMeF]TSDV[αMeS]S[αMeF]LEGEAA[αMeK]E[αMeF]IA[αMeF]VVK([PEG2′-PEG2′-PEG2′-Lauroyl])GG-NH2 [SEQ ID NO 172],26 nM,26 nM
H[Aib]EGS[αMeF]TSDV[αMeS]S[αMeF]LEGEAA[αMeK]E[αMeF]IA[αMeF]VVK([PEG2′-Lauroyl])GG-NH2 [SEQ ID NO 170],28 nM,28 nM
B2,27 nM,27 nM
H[Aib]EGS[αMeF]TSDV[αMeS]S[αMeF]LEGEAA[αMeK]E[αMeF]IA[αMeF]VVK([Ahx-Ahx-Dodecylbenzoate])GG-NH2 [SEQ ID NO 177],27 nM,27 nM
H[Aib]EGS[αMeF]TSDV[αMeS]S[αMeF]LEGEAA[αMeK]E[αMeF]IA[αMeF]VVK([γGlu-γGlu-γGlu-Dodecylbenzoate])GG-NH2 [SEQ ID NO 175],26 nM,26 nM
H[Aib]EGS[αMeF]TSDV[αMeS]S[αMeF]LEGEAA[αMeK]E[αMeF]IA[αMeF]VVK([PEG2′-Dodecylbenzoate])GG-NH2 [SEQ ID NO 179],27 nM,27 nM
H[Aib]EGS[αMeF]TSDV[αMeS]S[αMeF]LEGEAA[αMeK]E[αMeF]IA[αMeF]VVK([γGlu-Dodecylbenzoate])GG-NH2 [SEQ ID NO 173],27 nM,27 nM
H[Aib]EGS[αMeF]TSDV[αMeS]S[αMeF]LEGEAA[αMeK]E[αMeF]IA[αMeF]VVK([Ahx-Dodecylbenzoate])GG-NH2 [SEQ ID NO 176],27 nM,27 nM
